Experimental data from US20200362049A1 (BLACK BELT THERAPEUTICS, published 2020).

Columns and labels:
Human CD38 on cells [1] = biological target: T1, Human CD38 on cells (human, UniProt P28907 1-300); assay: cell-based or functional assay
Human CD38 on cells [2] = biological target: T1, Human CD38 on cells; assay: cell-based or functional assay; remark: listed apart in the source

ADCC, target Daudi cells: EC50 ug/ml DARA (Human CD38 on cells [1]): 0.0139 µg/mL
CDC, 10% complement, target Daudi cells: EC50 ug/ml DARA (experiment 10) (Human CD38 on cells [2]): 0.11 µg/mL
CDC, 10% complement, target Daudi cells: EC50 ug/ml DARA (experiment 11) (Human CD38 on cells [2]): 0.07 µg/mL
B1: Daratumumab (antibody, human IgG1, kappa, V domains shown)
VH: EVQLLESGGGLVQPGGSLRLSCAVSGFTFNSFAMSWVRQAPGKGLEWVSAISGSGGGTYYADSVKGRFTISRDNSKNTLYLQMNSLRAEDTAVYFCAKDKILWFGEPVFDYWGQGTLVTVSS
VL: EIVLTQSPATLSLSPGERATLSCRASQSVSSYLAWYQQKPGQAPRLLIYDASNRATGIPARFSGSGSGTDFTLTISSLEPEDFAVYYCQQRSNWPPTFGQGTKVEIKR
